The target of experiment [1] is α1-antichymotrypsin (Homo sapiens (Human), UniProt P01011). Kind of experiment: complex formation with serpin (method not described).
Experiment [2] has as its target α1-antitrypsin (Homo sapiens (Human), UniProt P01009). The experiment is described as above.

The values that follow come from patent publication US6303361, “Human glandular kallikrein-1 (hK2)” (Orion-Yhtyma Oyj, dated 2001).

B1: recombinant Trp226-hK2 protein (Trp226-hK2 having the N-terminal dipeptide extension Ser-Arg, from insect cells) (enzyme)
chain: not shown
As for B1, the binding result in experiment [1] and in experiment [2] was “no binding” throughout.
